Biological target: taxol-stabilized microtubules
Assay: co-sedimentation

fold weaker affinity against MBD not phosphorylated by aurora A: 5 fold
Substance: p150^glued MBD-(His)6 after incubation with aurora A protein kinase and ATP (domain or fragment)

— PMC2872913
